Consider five molecules from patent US20220372155A1 (LYVGEN BIOPHARMA, published 2022).

In assay [1] the target is T1, Human CD40 ECD protein (mouse IgG2a Fc tag) (human, UniProt P25942 21-193).
T1 construct: extracellular domain; also called Human CD40-msFc; human recombinant CD40; not shown: mouse IgG2a Fc tag
The assay can be described thus: bridging ELISA, coated B7H3-His, soluble CD40-msFc. The method, then: Anti-B7H3/CD40 bi-specific antibodies were analyzed by ELISA for their simultaneous binding to recombinant human B7H3 and human CD40. Briefly, Human B7H3 CD protein (His-tag) was diluted and coated onto an ELISA plate with a volume of […] by incubation at 4° C. overnight. The next day, the plate was blocked with PBST-BSA buffer, then serially diluted samples of anti-B7H3/CD40 bi-specific antibodies were pipetted into appropriate wells at 50 μL/well, and the plate was incubated for 1 h followed by washing. Human CD40-msFc antibody was added into the plate at 50 μL/well. After 1-hour incubation at room temperature, […] anti-Mouse IgG (H+L) antibody was added into the plate at 100 μL/well. The plate was incubated for 1 hour at room temperature followed by washing. TMB substrate solution was added at 100 p L/well and the color development was stopped by adding 100 uUwell Stop Solution (2N H2SO4). Absorbance at 450 nm and 620 nm was read by Tecan F200 Pro plate reader. GraphPad 7.0, “[Agonist] vs. response—Variable slope (four parameters)” was used to plot the binding data and calculate binding EC50 values.
(In general: ELISA stands for enzyme-linked immunosorbent assay.)

In assay [2] the target is T2, human CD40 expressed on CHO cells (human, UniProt P25942 21-277).
T2 construct: whole, on cells; also used for the reporter cells over-expressing human CD40; also called cellular CD40; CHO-CD40 cells
The assay can be described thus: FACS, CHO cells. On the technique in general: Flow cytometry measures light scatter and fluorescence of single cells or particles in a stream.

T1 sequence (P25942 21-193): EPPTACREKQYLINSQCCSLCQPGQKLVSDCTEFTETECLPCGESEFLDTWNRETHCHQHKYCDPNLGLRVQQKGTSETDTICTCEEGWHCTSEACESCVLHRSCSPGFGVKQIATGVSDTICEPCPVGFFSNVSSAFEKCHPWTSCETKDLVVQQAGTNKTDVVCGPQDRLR
T2 sequence (P25942 21-277): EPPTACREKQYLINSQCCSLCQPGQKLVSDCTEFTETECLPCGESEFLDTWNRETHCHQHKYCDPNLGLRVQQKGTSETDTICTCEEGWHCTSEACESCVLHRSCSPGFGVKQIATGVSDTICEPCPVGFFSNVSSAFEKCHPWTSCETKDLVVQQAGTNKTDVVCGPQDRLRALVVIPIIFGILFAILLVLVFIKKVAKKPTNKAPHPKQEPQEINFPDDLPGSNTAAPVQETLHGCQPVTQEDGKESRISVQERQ

B1: Ly613 (bispecific antibody, human IgG1, kappa)
heavy: EVQLQQSGPELVKPGASVKMSCKASGYTFTSYVMHWVKQKPGQGLEWIGYINPYNDGTECTDKFKGKATLTSDKSSSTAYMELSSLTSEDSAVYYCASIYYGYDGTYFGVWGAGTSVTVSSASTKGPSVFPLAPSSKSTSGGTAALGCLVKDYFPEPVTVSWNSGALTSGVHTFPAVLQSSGLYSLSSVVTVPSSSLGTQTYICNVNHKPSNTKVDKKVEPKSCDKTHTCPPCPAPELLGPSVFLFPPKPKDTLMISRTPEVTCVVVDVSHEDPEVKFNWYVDGVEVHNAKTKPREEQYNSTYRVVSVLTVLHQDWLNGKEYKCKVSNKALPAPIEKTISKAKGQPREPQVYTLPPSREEMTKNQVSLTCLVKGFYPSDIAVEWESNGQPENNYKTTPPVLDSDGSFFLYSKLTVDKSRWQQGNVFSCSVMHEALHNHYTQKSLSLSPGGGGGSGGGGSGGGGSGGGGSEVQLVESGGGLVQPGGSLRLSCAASGFTFTNYGLHWVRQAPGKGLEWVSSISPSGGVTYYRDSVKGRFTISRDNSKNTLYLQMNSLRAEDTAVYYCAKPFLGWGGANWIAHWGQGTLVTVSSGGGGSGGGGSGGGGSGGGGSDIQMTQSPSSLSASVGDRVTITCLASEDISNDLAWYQQKPGKAPKLLIYFVDRLLDGVPSRFSGSGSGTDFTLTISSLQPEDFATYYCQQSYKYPPTFGQGTKLEIK
light: QIVLSQSPAILSTSPGEKVTMTCRASSSVSYMHWYQQKPGSSPKPWIYATSNLASGVPARFSGSRSGTSYSLTISRVEAEDAATYYCQQWSSNTLTFGGGTKLELKRTVAAPSVFIFPPSDEQLKSGTASVVCLLNNFYPREAKVQWKVDNALQSGNSQESVTEQDSKDSTYSLSSTLTLSKADYEKHKVYACEVTHQGLSSPVTKSFNRGEC
notes: Ly383 HC (IgG1 mutated Fc)-TM559 scFv VH-VL + Ly383 LC
Take B1: the binding result in assay [1] and in assay [2] was “binds” throughout.

B2: Ly614 (bispecific antibody, human IgG1, kappa)
heavy: QVQLQQPGAELVKPGASVKLSCKASGYTFTSYWMHWVKQRPGQGLEWIGMIHPNSGGTNYNEKFKGKGTLTVDKSSSTAYMQLSSLTSDDSAVYYCVTSQATWFAYWGQGTLVTVSAASTKGPSVFPLAPSSKSTSGGTAALGCLVKDYFPEPVTVSWNSGALTSGVHTFPAVLQSSGLYSLSSVVTVPSSSLGTQTYICNVNHKPSNTKVDKKVEPKSCDKTHTCPPCPAPELLGPSVFLFPPKPKDTLMISRTPEVTCVVVDVSHEDPEVKFNWYVDGVEVHNAKTKPREEQYNSTYRVVSVLTVLHQDWLNGKEYKCKVSNKALPAPIEKTISKAKGQPREPQVYTLPPSREEMTKNQVSLTCLVKGFYPSDIAVEWESNGQPENNYKTTPPVLDSDGSFFLYSKLTVDKSRWQQGNVFSCSVMHEALHNHYTQKSLSLSPGGGGGSGGGGSGGGGSGGGGSDIQMTQSPSSLSASVGDRVTITCKASQNIYIYLNWYQQKPGKAPKLLIYNTNNLQTGVPSRFSGSGSGTDFTLTISSLQPEDFATYYCLQHSSRRTFGGGTKVEIKGGGGSGGGGSGGGGSGGGGSQVQLVESGGGLVQPGGSLKLSCATSGFNFNDYFMNWVRQASGKGLEWVGQIRNKNYNYATYYTESLEGRVTISRDDSKNTAYLQMNSLKTEDTAVYYCTSYYYDGFADYFDYWGQGTTVTVSS
light: ENVLTQSPAIMSVSPGEKVTMTCRASSSVSSSYLHWYQQKSGASPKFWIYSTSNLASGVPARFSGSGSGTSYSLTISSVEAEDAATYYCQHYSGYPLTFGAGTKLELRRTVAAPSVFIFPPSDEQLKSGTASVVCLLNNFYPREAKVQWKVDNALQSGNSQESVTEQDSKDSTYSLSSTLTLSKADYEKHKVYACEVTHQGLSSPVTKSFNRGEC
notes: Ly387 HC (IgG1 mutated Fc)-TM740 scFv VL-VH + Ly387 LC
As for B2, the binding result in assay [1] and in assay [2] was “binds” each time.

B3: Ly616 (bispecific antibody, human IgG1, kappa)
heavy: QVQLQQPGAELVKPGASVKLSCKASGYTFTSYWMHWVKQRPGQGLEWIGMIHPNSGGTNYNEKFKGKGTLTVDKSSSTAYMQLSSLTSDDSAVYYCVTSQATWFAYWGQGTLVTVSAASTKGPSVFPLAPSSKSTSGGTAALGCLVKDYFPEPVTVSWNSGALTSGVHTFPAVLQSSGLYSLSSVVTVPSSSLGTQTYICNVNHKPSNTKVDKKVEPKSCDKTHTCPPCPAPELLGPSVFLFPPKPKDTLMISRTPEVTCVVVDVSHEDPEVKFNWYVDGVEVHNAKTKPREEQYNSTYRVVSVLTVLHQDWLNGKEYKCKVSNKALPAPIEKTISKAKGQPREPQVYTLPPSREEMTKNQVSLTCLVKGFYPSDIAVEWESNGQPENNYKTTPPVLDSDGSFFLYSKLTVDKSRWQQGNVFSCSVMHEALHNHYTQKSLSLSPGGGGGSGGGGSGGGGSGGGGSDIQMTQSPSSLSASVGDRVTITCLASEDISNDLAWYQQKPGKAPKLLIYFVDRLLDGVPSRFSGSGSGTDFTLTISSLQPEDFATYYCQQSYKYPPTFGQGTKLEIKGGGGSGGGGSGGGGSGGGGSEVQLVESGGGLVQPGGSLRLSCAASGFTFTNYGLHWVRQAPGKGLEWVSSISPSGGVTYYRDSVKGRFTISRDNSKNTLYLQMNSLRAEDTAVYYCAKPFLGWGGANWIAHWGQGTLVTVSS
light: ENVLTQSPAIMSVSPGEKVTMTCRASSSVSSSYLHWYQQKSGASPKFWIYSTSNLASGVPARFSGSGSGTSYSLTISSVEAEDAATYYCQHYSGYPLTFGAGTKLELRRTVAAPSVFIFPPSDEQLKSGTASVVCLLNNFYPREAKVQWKVDNALQSGNSQESVTEQDSKDSTYSLSSTLTLSKADYEKHKVYACEVTHQGLSSPVTKSFNRGEC
notes: Ly387 HC (IgG1 mutated Fc)-TM559 scFv VL-VH + Ly387 LC
Take B3: the binding result in assay [1] and in assay [2] was “binds” each time.

B4: Ly615 (bispecific antibody, human IgG1, kappa)
heavy: QVQLQQPGAELVKPGASVKLSCKASGYTFTSYWMHWVKQRPGQGLEWIGMIHPNSGGTNYNEKFKGKGTLTVDKSSSTAYMQLSSLTSDDSAVYYCVTSQATWFAYWGQGTLVTVSAASTKGPSVFPLAPSSKSTSGGTAALGCLVKDYFPEPVTVSWNSGALTSGVHTFPAVLQSSGLYSLSSVVTVPSSSLGTQTYICNVNHKPSNTKVDKKVEPKSCDKTHTCPPCPAPELLGPSVFLFPPKPKDTLMISRTPEVTCVVVDVSHEDPEVKFNWYVDGVEVHNAKTKPREEQYNSTYRVVSVLTVLHQDWLNGKEYKCKVSNKALPAPIEKTISKAKGQPREPQVYTLPPSREEMTKNQVSLTCLVKGFYPSDIAVEWESNGQPENNYKTTPPVLDSDGSFFLYSKLTVDKSRWQQGNVFSCSVMHEALHNHYTQKSLSLSPGGGGGSGGGGSGGGGSGGGGSQVQLVESGGGLVQPGGSLKLSCATSGFNFNDYFMNWVRQASGKGLEWVGQIRNKNYNYATYYTESLEGRVTISRDDSKNTAYLQMNSLKTEDTAVYYCTSYYYDGFADYFDYWGQGTTVTVSSGGGGSGGGGSGGGGSGGGGSDIQMTQSPSSLSASVGDRVTITCKASQNIYIYLNWYQQKPGKAPKLLIYNTNNLQTGVPSRFSGSGSGTDFTLTISSLQPEDFATYYCLQHSSRRTFGGGTKVEIK
light: ENVLTQSPAIMSVSPGEKVTMTCRASSSVSSSYLHWYQQKSGASPKFWIYSTSNLASGVPARFSGSGSGTSYSLTISSVEAEDAATYYCQHYSGYPLTFGAGTKLELRRTVAAPSVFIFPPSDEQLKSGTASVVCLLNNFYPREAKVQWKVDNALQSGNSQESVTEQDSKDSTYSLSSTLTLSKADYEKHKVYACEVTHQGLSSPVTKSFNRGEC
notes: Ly387 HC (IgG1 mutated Fc)-TM740 scFv VH-VL + Ly387 LC
B4: the binding result in assay [1] and in assay [2] was “binds” in each case.

B5: Ly617 (bispecific antibody, human IgG1, kappa)
heavy: QVQLQQPGAELVKPGASVKLSCKASGYTFTSYWMHWVKQRPGQGLEWIGMIHPNSGGTNYNEKFKGKGTLTVDKSSSTAYMQLSSLTSDDSAVYYCVTSQATWFAYWGQGTLVTVSAASTKGPSVFPLAPSSKSTSGGTAALGCLVKDYFPEPVTVSWNSGALTSGVHTFPAVLQSSGLYSLSSVVTVPSSSLGTQTYICNVNHKPSNTKVDKKVEPKSCDKTHTCPPCPAPELLGPSVFLFPPKPKDTLMISRTPEVTCVVVDVSHEDPEVKFNWYVDGVEVHNAKTKPREEQYNSTYRVVSVLTVLHQDWLNGKEYKCKVSNKALPAPIEKTISKAKGQPREPQVYTLPPSREEMTKNQVSLTCLVKGFYPSDIAVEWESNGQPENNYKTTPPVLDSDGSFFLYSKLTVDKSRWQQGNVFSCSVMHEALHNHYTQKSLSLSPGGGGGSGGGGSGGGGSGGGGSEVQLVESGGGLVQPGGSLRLSCAASGFTFTNYGLHWVRQAPGKGLEWVSSISPSGGVTYYRDSVKGRFTISRDNSKNTLYLQMNSLRAEDTAVYYCAKPFLGWGGANWIAHWGQGTLVTVSSGGGGSGGGGSGGGGSGGGGSDIQMTQSPSSLSASVGDRVTITCLASEDISNDLAWYQQKPGKAPKLLIYFVDRLLDGVPSRFSGSGSGTDFTLTISSLQPEDFATYYCQQSYKYPPTFGQGTKLEIK
light: ENVLTQSPAIMSVSPGEKVTMTCRASSSVSSSYLHWYQQKSGASPKFWIYSTSNLASGVPARFSGSGSGTSYSLTISSVEAEDAATYYCQHYSGYPLTFGAGTKLELRRTVAAPSVFIFPPSDEQLKSGTASVVCLLNNFYPREAKVQWKVDNALQSGNSQESVTEQDSKDSTYSLSSTLTLSKADYEKHKVYACEVTHQGLSSPVTKSFNRGEC
notes: Ly387 HC (IgG1 mutated Fc)-TM559 scFv VH-VL + Ly387 LC
As for B5, the binding result in assay [1] and in assay [2] was “binds” each time.
